Reference: US8623997B2, “Variant Hhip1 protein and methods and uses thereof” (Curis, Inc., priority 2008, dated 2014)

B1: Hhip1β12: β-propeller-EGF1-EGF2 construct (SEQ ID NO:12), residues 193-667 of SEQ ID NO:2, lacking putative Fz domain (protein, listed as Homo sapiens)
chain: SNYLDQMEEYDKVEEISRKHKHNCFCIQEVVSGLRQPVGALHSGDGSQRLFILEKEGYVKILTPEGEIFKEPYLDIHKLVQSGIKGGDERGLLSLAFHPNYKKNGKLYVSYTTNQERWAIGPHDHILRVVEYTVSRKNPHQVDLRTARVFLEVAELHRKHLGGQLLFGPDGFLYIILGDGMITLDDMEEMDGLSDFTGSVLRLDVDTDMCNVPYSIPRSNPHFNSTNQPPEVFAHGLHDPGRCAVDRHPTDININLTILCSDSNGKNRSSARILQIIKGKDYESEPSLLEFKPFSNGPLVGGFVYRGCQSERLYGSYVFGDRNGNFLTLQQSPVTKQWQEKPLCLGTSGSCRGYFSGHILGFGEDELGEVYILSSSKSMTQTHNGKLYKIVDPKRPLMPEECRATVQPAQTLTSECSRLCRNGYCTPTGKCCCSPGWEGDFCRTAKCEPACRHGGVCVRPNKCLCKKGYLGPQCE
B2: Hhip1β12-Fc: Fc-tagged Hhip1β12 (protein)
chain: B1 chain
modifications: left off: a dimerising Fc or GST
B3: D383R: Hhip L2 mutant of Hhip1β12 with D383 changed to R (protein)
chain: MLKMLSFKLLLLAVALGFFEGDAKFGERNEGSGARRRRCLNGNPPKRLKRRDRRMMSQLELLSGGEMLCGGFYPRLSCCLRSDSPGLGRLENKIFSVTNNTECGKLLEEIKCALCSPHSQSLFHSPEREVLERDLVLPLLCKDYCKEFFYTCRGHIPGFLQTTADEFCFYYARKDGGLCFPDFPRKQVRGPASNYLDQMEEYDKVEEISRKHKHNCFCIQEVVSGLRQPVGALHSGDGSQRLFILEKEGYVKILTPEGEIFKEPYLDIHKLVQSGIKGGDERGLLSLAFHPNYKKNGKLYVSYTTNQERWAIGPHDHILRVVEYTVSRKNPHQVDLRTARVFLEVAELHRKHLGGQLLFGPDGFLYIILGDGMITLDDMEEMRGLSDFTGSVLRLDVDTDMCNVPYSIPRSNPHFNSTNQPPEVFAHGLHDPGRCAVDRHPTDININLTILCSDSNGKNRSSARILQIIKGKDYESEPSLLEFKPFSNGPLVGGFVYRGCQSERLYGSYVFGDRNGNFLTLQQSPVTKQWQEKPLCLGTSGSCRGYFSGHILGFGEDELGEVYILSSSKSMTQTHNGKLYKIVDPKRPLMPEECRATVQPAQTLTSECSRLCRNGYCTPTGKCCCSPGWEGDFCRTAKCEPACRHGGVCVRPNKCLCKKGYLGPQCEQVDRNIRRVTRAGILDQIIDMTSYLLDLTSYIV
B4: Hhip1ΔL2: Hhip1β12 mutant with deletion of the entire L2 loop (protein)
chain: SNYLDQMEEYDKVEEISRKHKHNCFCIQEVVSGLRQPVGALHSGDGSQRLFILEKEGYVKILTPEGEIFKEPYLDIHKLVQSGIKGGDERGLLSLAFHPNYKKNGKLYVSYTTNQERWAIGPHDHILRVVEYTVSRKNPHQVDLRTARVFLEVAELHRKHLGGQLLFGPDGFLYIILGDGMITTGSVLRLDVDTDMCNVPYSIPRSNPHFNSTNQPPEVFAHGLHDPGRCAVDRHPTDININLTILCSDSNGKNRSSARILQIIKGKDYESEPSLLEFKPFSNGPLVGGFVYRGCQSERLYGSYVFGDRNGNFLTLQQSPVTKQWQEKPLCLGTSGSCRGYFSGHILGFGEDELGEVYILSSSKSMTQTHNGKLYKIVDPKRPLMPEECRATVQPAQTLTSECSRLCRNGYCTPTGKCCCSPGWEGDFCRTAKCEPACRHGGVCVRPNKCLCKKGYLGPQCEHHHHHH

How the values were obtained:
[1] = target: Hh signaling; test: S12 Gli luciferase assay, activation of Hh signaling; assay type: cell-based, murine; settings: octylated Ihh wildtype and T154I proteins
Protocol: (§1) Shh649 (1 nM) preincubated with indicated proteins was bound to Ptch1 expressing cells, washed and analyzed by FACS. The average mean Shh649 fluorescence intensity (MFI) of two independent dilution series was plotted versus inhibitor concentration, with error bars denoting standard deviations. […] Assays were carried out using octylated Ihh wildtype and T154I proteins. Concentration dependent relative luciferase units (RLU) are plotted as the average of four independent dilution series±standard deviation and normalized to the maximal Ihh WT stimulation on each plate as 100%. […] The data is representative of three independent experiments.
Briefly, S12 cells, which are 10T1/2 fibroblasts stably transfected with 8× Gli-binding sites fused to a luciferase reporter (Frank-Kamenetsky et al. (2002) J. Biol. 1:10), were plated at 10,000 cells/well of a white-walled clear bottomed 96-well plate (Costar 3610) for 48 hrs in regular growth medium (HG-DMEM, 10% FBS, 1% glutamine). After 24 h, the media was removed and Shh-producing HT29 cells at 20,000 cells/well were plated and the co-culture was grown in regular media. […] Gli-luciferase activity was measured using a HTS-Steady Lite luciferase detection kit (Perkin Elmer); multiple assays were carried out, each in triplicate. […]

[2] = tested on: Ptch1; test: FACS assay of Shh649 binding to Ptch1 expressing 293 cells and its competition; design: species or system human
Protocol: as §1
Shh is in the same orientation as in the Hhip-Shh complex in Panel A. Zn^2+ and Ca^2+ cations are shown. […] Surface representation of Shh with residues within 4.5 Å of Hhip (shaded gray) and Cdon (hatched areas). Area within dotted boarder indicates the boundaries of the Cdon footprint, which overlaps the Hhip binding surface. […] Shh histidine residues are shown as sticks with nitrogen atoms shaded dark. The Hhip L2 loop is shown in transparent surface and Zn^2+ cation is shown. Histidine 35 is not shown since the ordered portion of the Shh structure begins at L40. […] The spectral region of the histidine side chains is shown. […] The average mean Shh649 fluorescence intensity (MFI) of two independent dilution series was plotted versus protein concentration, with error bars denoting standard deviations. Ctrl refers to the His-6 (SEQ ID NO: 87) tagged HGF β protein. […] Shh649 (0.33 nM) was preincubated with 56 nM (170-fold excess) of Hhipβ12 wildtype or L2 mutant proteins, 5E1 or controls then bound to Ptch1 cells (black) or 293 cells (gray), washed and analyzed by FACS. Shh649 binding to Ptch1 cells in the absence of inhibitors was normalized to 100% and the data expressed as a percentage of this signal (average of two independent duplicates with standard deviations). Ctrl and CtrlFc refer to HGF β and the IgG1 isotype control Trastuzumab, respectively. The data is representative of at least three independent experiments.
Shh649, conjugated to Dylight 649 (Pierce) at its C-terminus (vide supra), was incubated at 0.33 or 1 nM for 1 h on ice with various Hhip or control proteins prior to incubation with HEK-293 cells (293) or 293 cells expressing full length human Patched-1 (Ptch1-293 clone 10) (Carpenter D. et al. (1998) Proc. Natl. Acad. Sci. USA 95:13630-13634) in FACS buffer (3% FBS in PBS) for 1 h on ice. After washing 3 times in FACS buffer, live cells (sorted by propidium iodide exclusion) were analyzed by flow cytometry in the APC channel using a FACSCalibur (BD Biosciences). Control proteins included His6-Shh, His6-Ihh, HGF β-His639, Trastuzumab (Genentech, Inc.) as a human IgG1 isotype control for Hhip1β12-Fc, and mIgG1 (Molecular Probes Z25105) as a murine Mab control for anti-Shh 5E1 Mab34.

[3] = target: T1, Shh649 binding to Hhip1β12 on 293 cells (Homo sapiens, UniProt Q15465); test: FACS: Ptch1-independent recruitment of Shh649 to 293 cells by Hhip1β12; settings: 520 nM
T1 construct: made in house; host or cells: Shh649: E. coli Rosetta 2; Hhip1β12: Tni insect cells; both added to HEK-293 cells
Description: The critical residue for 5E1 binding, S177 shown marked with an asterisk (*), resides in the area of Shh that interacts with both Hhip and Ptch1. Numbering refers to human Shh (Fuse, N. et al. (1999) Proc. Natl. Acad. Sci. USA 96:10992-10999; Pepinsky R. B. et al. (2000) J. Biol. Chem. 275:10995-11001). […] Black bars show binding to Ptch1 cells for comparison. Data are the average mean fluorescence intensity and SDs of two independent (duplicate and triplicate) experiments normalized to Shh649 binding to Ptch1 cells in the absence of other proteins (“Ctrl”) in the same way as FIG. 15J. Shh649 and Hhip1β12 are present at 45- and 10-fold higher concentrations respectively than in FIG. 15J in order to detect the Ptch1-independent binding of Shh649 to Hhip1β12.
Shh649, conjugated to Dylight 649 (Pierce) at its C-terminus (vide supra), was incubated at 0.33 or 1 nM for 1 h on ice with various Hhip or control proteins prior to incubation with HEK-293 cells (293) or 293 cells expressing full length human Patched-1 (Ptch1-293 clone 10) (Carpenter D. et al. (1998) Proc. Natl. Acad. Sci. USA 95:13630-13634) in FACS buffer (3% FBS in PBS) for 1 h on ice. After washing 3 times in FACS buffer, live cells (sorted by propidium iodide exclusion) were analyzed by flow cytometry in the APC channel using a FACSCalibur (BD Biosciences). […]

[4] = target: T2, biotinylated-ShhN-Cys (Homo sapiens, UniProt Q15465); test: Bio-layer interferometry (Octet) binding kinetics of Hhip1β12 variants to Shh; settings: for Shh binding of Hhip1β12 mutants (in words): bio-layer interferometry, compared with WT Hhip1β12
T2 construct: ShhN-Cys (residues 24-197); His6 (N); made in house; host or cells: E. coli Rosetta 2
Protocol: The binding kinetics of the Hhip1β12 fragments as well as Hhip1β12 mutants were measured by bio-layer interferometry in the presence or absence of 10 mM EDTA on an Octet (Fortébio). Streptavidin high binding FA biosensors were loaded with biotinylated-ShhN-Cys in kinetic buffer (Fortébio). The loaded biosensors were washed and transferred to wells containing Hhip1β12 protein at concentrations of 1.2, 1.0, 0.8 and 0.6 μM in kinetic buffer. Hhip1β12 association and dissociation was measured for 30 and 20 min, respectively. Kinetic parameters (kon and koff) and affinities (KD) were calculated from a non-linear fit of the data based on a 1:1 binding model between Hhip1β12 and Shh using the Octet software. Multiple independent measurements were performed.
In order to assess the contribution of residues in the Hhip1 L1, L2 and L3 loops for binding to Shh, a series of single alanine Hipβ12 mutants were made using the QuickChange DNA mutagenesis kit (Stratagene) using the manufacturer's protocol, and their affinity for Shh was measured by bio-layer interferometry (as described in Example 2B). These mutations included Hhip1β12 mutants 1312A, E381A, M382A, D383A, D378A, T418A, Q420A, E380A, D387A and ΔL2.

[5] = tested on: Shh signaling; test: Gli-luciferase co-culture signaling assay (S12 fibroblasts overlaid with Shh-producing HT29 cells); assay type: cell-based, murine S12 fibroblasts / human HT29 cells; settings: for IC50: 24 hrs, read-out: IC50 inhibition of Shh signaling
Description: Due to the lack of both N- and C-terminal lipid modifications of Shh and the absence of other cellular components, the in vitro assays may not fully recapitulate Hip-Shh interactions occurring in a cellular environment. Therefore, a co-culture assay consisting of murine S12 fibroblasts stably transfected with a Gli luciferase reporter gene and (Frank-Kamenetsky et al. (2002) J. Biol. 1:10) and human colorectal adenocarcinoma HT29 cells that secrete fully lipid-modified Shh (Yauch et al. (2008) Nature 455:406) was used to determine which extracellular domains of Hhip1β12 mediate inhibition of Shh signaling in mammalian cells.
Briefly, S12 cells, which are 10T1/2 fibroblasts stably transfected with 8× Gli-binding sites fused to a luciferase reporter (Frank-Kamenetsky et al. (2002) J. Biol. 1:10), were plated at 10,000 cells/well of a white-walled clear bottomed 96-well plate (Costar 3610) for […] in regular growth medium (HG-DMEM, 10% FBS, 1% glutamine). After 24 h, the media was removed and Shh-producing HT29 cells at 20,000 cells/well were plated and the co-culture was grown in regular media. After 24 h, the media was changed to 0.5% serum HG-DMEM±Hhip1β12 fragments and further incubated for 24 hrs to stimulate signaling. Gli-luciferase activity was measured using a HTS-Steady Lite luciferase detection kit (Perkin Elmer); multiple assays were carried out, each in triplicate. Data were fit to a 4-parameter sigmoidal equation, from which the IC50 was derived using Kaleidagraph (Synergy Software).

[6] = 1:1 binding model, n.d stands for no binding detected

| Molecule | EC50 [1] [nM] | competition of Shh649 binding to Ptch1 cells (in words) [2] | binding to 293 cells at high concentrations [3] | IC50 ([5]; Gli-luciferase co-culture) [nM] | Shh binding of Hhip1β12 mutants (in words) [4] | also measured |
| --- | --- | --- | --- | --- | --- | --- |
| Ihh: human Indian Hedgehog, residues 29-202 | 16 | dose dependent manner |  |  |  |  |
| T154I: type A1 brachydactyly mutant Ihh T154I | 330 |  |  |  |  |  |
| B1 |  | inhibit Ptch1-specific Shh cell binding in a dose-dependent manner | bind nonspecifically to 293 cells | 5 |  | Kd [4, 6]: 220 nM; koff × 10^−4 [4, 6]: 9.4 × 10^−4 [s^−1]; kon × 10^3 [4, 6]: 4.3 × 10^3 [M^−1 × s^−1] |
| B2 |  | inhibit Ptch1-specific Shh cell binding in a dose-dependent manner | bind nonspecifically to 293 cells |  |  |  |
| B3 |  | no inhibition |  | 57 | inability | IC50 fold change versus wildtype Hipβ12 ([5]; Gli-luciferase co-culture): ~13 fold; maximal inhibition ([5]; at saturating conditions): ~50% |
| B4 |  | no inhibition |  |  | abrogated binding to Shh | inhibitory activity (in words) ([5]; Gli-luciferase co-culture): no inhibitory activity |
